Test results as given in the supplement of paper PMC10065799, “High-throughput profiling of sequence recognition by tyrosine kinases and SH2 domains using bacterial peptide display” (eLife, 2023).

Legend:
Jak2 = Jak2 (UniProt O60674); test: phosphorylation enrichment, bacterial display (enrichment ratio); higher = better substrate or ligand; peptides without Tyr show the background
c-Src = test: as above
MERTK = MERTK (UniProt Q12866); test: as above
EPHB1 = EPHB1 (UniProt P54762); test: as above
Fes = Fes (UniProt P07332); test: as above
EPHB2 = EPHB2 (UniProt P29323); test: as above
c-Abl (mouse) = test: as above
Fer (mouse) = test: as above
FGFR3 = FGFR3 (UniProt P22607); test: as above
AncSZ = test: as above
FGFR1 = FGFR1 (UniProt P11362); test: as above
Fyn = Fyn (UniProt P06241); test: as above
Hck = Hck (UniProt P08631); test: as above
c-Src SH2 = test: SH2 binding enrichment of the phosphorylated peptide, bacterial display (enrichment ratio); higher = better substrate or ligand; peptides without Tyr show the background
SHP2-C SH2 = test: as above
Grb2 SH2 = Grb2 SH2 (UniProt P62993); test: as above
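Throughout, for SH2 binding enrichment of the phosphorylated peptide, bacterial display: peptide library displayed on the E. coli surface as eCPX fusions, selected cells deep-sequenced, score is each peptide's frequency after selection divided by its frequency in the input.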
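Throughout, for phosphorylation enrichment, bacterial display: 11-residue human phosphosite peptides and single-mutation variants displayed on the E. coli surface, counted by deep sequencing, each peptide's frequency after selection divided by its frequency in the unselected input library; frequency after pTyr selection over input frequency; kinase dosed for 20-30% of maximal phosphorylation in three min.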

Chain of Jak2 (O60674 whole entry, looked up): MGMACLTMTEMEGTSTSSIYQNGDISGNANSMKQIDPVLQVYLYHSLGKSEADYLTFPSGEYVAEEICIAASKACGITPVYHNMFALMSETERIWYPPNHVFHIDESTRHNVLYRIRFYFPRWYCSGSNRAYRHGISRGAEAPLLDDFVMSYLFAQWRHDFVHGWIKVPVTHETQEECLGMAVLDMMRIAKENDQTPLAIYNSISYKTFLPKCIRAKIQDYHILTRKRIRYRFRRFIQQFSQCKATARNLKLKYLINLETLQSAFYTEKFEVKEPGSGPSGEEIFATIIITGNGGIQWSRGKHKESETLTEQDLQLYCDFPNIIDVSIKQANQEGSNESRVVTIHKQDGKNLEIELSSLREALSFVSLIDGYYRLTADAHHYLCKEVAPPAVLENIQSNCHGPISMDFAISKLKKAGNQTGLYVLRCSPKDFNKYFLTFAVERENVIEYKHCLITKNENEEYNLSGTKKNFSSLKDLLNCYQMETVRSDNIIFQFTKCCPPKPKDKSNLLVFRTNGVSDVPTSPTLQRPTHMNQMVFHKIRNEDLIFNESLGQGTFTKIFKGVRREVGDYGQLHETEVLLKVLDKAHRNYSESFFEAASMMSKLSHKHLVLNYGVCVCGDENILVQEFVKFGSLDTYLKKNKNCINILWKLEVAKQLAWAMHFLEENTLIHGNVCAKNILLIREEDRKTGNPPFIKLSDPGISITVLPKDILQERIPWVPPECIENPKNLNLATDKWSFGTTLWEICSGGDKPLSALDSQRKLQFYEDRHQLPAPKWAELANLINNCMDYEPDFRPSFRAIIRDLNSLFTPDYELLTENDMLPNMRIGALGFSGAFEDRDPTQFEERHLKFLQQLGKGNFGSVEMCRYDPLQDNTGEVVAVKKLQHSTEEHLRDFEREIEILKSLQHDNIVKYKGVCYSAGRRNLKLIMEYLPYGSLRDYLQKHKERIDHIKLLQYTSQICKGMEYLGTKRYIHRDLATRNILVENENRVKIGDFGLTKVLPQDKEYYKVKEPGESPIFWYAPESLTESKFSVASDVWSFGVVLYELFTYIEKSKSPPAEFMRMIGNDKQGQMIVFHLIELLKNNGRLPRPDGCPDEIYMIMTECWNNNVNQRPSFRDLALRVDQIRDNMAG
Chain of EPHB2 (P29323 whole entry, looked up): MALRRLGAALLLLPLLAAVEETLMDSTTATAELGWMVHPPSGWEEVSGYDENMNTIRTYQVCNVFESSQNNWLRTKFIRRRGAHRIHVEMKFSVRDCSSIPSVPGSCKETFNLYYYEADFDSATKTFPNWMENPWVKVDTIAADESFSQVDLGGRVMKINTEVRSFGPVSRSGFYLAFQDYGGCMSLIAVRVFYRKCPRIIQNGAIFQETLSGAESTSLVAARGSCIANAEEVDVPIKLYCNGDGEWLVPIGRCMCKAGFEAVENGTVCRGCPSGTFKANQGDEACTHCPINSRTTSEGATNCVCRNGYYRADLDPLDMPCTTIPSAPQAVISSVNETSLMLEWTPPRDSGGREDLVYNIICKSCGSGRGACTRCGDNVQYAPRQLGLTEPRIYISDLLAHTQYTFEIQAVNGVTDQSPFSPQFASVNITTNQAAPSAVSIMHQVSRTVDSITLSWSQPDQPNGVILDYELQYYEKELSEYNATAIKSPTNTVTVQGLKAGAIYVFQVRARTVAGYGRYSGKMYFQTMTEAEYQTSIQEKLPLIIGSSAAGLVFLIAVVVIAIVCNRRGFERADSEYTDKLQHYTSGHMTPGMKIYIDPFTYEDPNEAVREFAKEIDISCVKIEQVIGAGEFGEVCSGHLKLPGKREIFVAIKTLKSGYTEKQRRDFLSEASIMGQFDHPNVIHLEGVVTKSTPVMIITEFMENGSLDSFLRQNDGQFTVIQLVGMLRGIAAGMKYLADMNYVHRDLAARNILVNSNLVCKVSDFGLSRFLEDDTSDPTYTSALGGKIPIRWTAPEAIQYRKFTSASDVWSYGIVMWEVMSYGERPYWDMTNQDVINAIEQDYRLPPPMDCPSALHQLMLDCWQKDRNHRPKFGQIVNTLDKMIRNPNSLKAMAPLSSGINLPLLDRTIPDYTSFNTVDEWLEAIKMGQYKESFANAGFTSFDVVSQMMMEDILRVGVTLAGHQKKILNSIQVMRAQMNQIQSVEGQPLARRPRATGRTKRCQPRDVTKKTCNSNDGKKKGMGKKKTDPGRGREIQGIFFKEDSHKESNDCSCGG
Chain of EPHB1 (P54762 whole entry, looked up): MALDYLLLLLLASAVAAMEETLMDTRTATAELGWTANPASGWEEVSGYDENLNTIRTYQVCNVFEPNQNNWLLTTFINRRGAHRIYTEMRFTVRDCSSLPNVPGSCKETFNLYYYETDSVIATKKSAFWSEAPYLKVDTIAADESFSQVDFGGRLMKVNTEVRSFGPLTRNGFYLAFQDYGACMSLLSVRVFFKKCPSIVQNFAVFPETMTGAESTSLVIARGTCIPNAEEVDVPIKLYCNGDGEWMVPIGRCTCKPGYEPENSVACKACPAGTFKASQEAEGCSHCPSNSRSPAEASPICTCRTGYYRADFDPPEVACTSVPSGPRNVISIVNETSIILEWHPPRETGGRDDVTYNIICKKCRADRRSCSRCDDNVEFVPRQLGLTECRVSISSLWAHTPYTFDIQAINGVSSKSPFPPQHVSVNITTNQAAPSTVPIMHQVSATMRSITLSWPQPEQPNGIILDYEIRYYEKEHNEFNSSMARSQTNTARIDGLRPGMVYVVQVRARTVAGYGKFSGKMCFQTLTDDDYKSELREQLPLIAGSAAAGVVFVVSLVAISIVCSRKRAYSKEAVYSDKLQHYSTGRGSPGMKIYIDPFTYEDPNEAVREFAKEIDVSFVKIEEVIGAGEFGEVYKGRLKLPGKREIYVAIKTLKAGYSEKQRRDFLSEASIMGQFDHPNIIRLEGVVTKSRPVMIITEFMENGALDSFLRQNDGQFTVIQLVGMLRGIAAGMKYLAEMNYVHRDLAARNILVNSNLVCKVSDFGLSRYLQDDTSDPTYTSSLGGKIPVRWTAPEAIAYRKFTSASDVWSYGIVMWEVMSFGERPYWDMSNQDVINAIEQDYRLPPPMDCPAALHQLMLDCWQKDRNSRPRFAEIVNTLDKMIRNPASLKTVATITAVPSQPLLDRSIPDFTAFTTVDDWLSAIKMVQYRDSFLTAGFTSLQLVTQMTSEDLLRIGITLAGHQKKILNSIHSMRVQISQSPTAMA
Chain of FGFR3 (P22607 whole entry, looked up): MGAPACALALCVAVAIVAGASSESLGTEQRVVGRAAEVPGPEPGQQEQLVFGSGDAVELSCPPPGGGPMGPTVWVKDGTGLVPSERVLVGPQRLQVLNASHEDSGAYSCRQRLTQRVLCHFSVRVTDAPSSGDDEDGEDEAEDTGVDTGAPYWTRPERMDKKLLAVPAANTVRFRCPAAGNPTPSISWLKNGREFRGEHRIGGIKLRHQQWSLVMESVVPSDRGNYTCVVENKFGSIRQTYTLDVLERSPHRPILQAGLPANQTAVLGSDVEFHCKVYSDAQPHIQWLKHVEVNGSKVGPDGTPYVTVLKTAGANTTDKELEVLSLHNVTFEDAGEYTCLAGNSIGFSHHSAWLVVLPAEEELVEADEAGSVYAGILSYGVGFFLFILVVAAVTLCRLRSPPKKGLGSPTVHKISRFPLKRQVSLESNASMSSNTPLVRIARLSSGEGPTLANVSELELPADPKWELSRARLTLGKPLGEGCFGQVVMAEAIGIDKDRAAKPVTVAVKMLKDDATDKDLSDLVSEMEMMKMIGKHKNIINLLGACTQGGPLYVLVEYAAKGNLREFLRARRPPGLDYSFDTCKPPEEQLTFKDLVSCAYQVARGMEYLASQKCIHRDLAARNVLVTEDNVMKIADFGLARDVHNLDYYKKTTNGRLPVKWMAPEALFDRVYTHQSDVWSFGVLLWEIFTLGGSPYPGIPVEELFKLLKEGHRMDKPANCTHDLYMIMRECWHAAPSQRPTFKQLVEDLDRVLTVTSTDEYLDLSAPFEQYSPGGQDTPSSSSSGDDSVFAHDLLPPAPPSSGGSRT
Chain of Hck (P08631 whole entry, looked up): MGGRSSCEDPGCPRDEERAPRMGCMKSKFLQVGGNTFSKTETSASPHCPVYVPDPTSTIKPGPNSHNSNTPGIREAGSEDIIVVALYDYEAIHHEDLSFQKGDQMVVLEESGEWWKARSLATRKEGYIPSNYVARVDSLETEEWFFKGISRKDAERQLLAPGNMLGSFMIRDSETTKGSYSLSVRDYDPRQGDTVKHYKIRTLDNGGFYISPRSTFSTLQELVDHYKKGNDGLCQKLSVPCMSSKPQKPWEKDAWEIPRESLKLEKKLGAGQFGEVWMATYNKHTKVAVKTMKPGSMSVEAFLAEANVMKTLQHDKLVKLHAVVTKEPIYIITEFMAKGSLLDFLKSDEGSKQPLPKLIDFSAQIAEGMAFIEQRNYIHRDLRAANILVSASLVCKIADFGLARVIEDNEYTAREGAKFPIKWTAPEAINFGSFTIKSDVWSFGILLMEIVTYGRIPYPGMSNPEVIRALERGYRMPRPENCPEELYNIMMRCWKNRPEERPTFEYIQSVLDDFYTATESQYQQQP
Chain of Fyn (P06241 whole entry, looked up): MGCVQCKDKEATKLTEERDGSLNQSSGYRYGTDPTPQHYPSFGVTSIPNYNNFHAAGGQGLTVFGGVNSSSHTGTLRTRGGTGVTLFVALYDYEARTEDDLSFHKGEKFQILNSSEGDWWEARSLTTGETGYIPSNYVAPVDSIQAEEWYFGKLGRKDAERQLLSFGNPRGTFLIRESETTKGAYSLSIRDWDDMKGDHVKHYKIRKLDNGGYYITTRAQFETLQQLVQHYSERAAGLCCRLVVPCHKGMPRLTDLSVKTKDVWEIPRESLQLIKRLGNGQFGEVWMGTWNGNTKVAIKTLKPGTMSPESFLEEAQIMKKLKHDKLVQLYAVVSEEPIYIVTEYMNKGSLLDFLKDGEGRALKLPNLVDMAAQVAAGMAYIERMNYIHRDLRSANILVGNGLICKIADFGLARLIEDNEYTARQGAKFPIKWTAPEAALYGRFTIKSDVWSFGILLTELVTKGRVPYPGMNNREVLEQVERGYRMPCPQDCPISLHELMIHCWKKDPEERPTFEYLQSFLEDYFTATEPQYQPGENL

Sequence	phosphorylation enrichment (Jak2)	phosphorylation enrichment (c-Src)	phosphorylation enrichment (MERTK)	phosphorylation enrichment (EPHB1)	phosphorylation enrichment (Fes)	phosphorylation enrichment (EPHB2)	phosphorylation enrichment (c-Abl (mouse))	phosphorylation enrichment (Fer (mouse))	phosphorylation enrichment (FGFR3)	phosphorylation enrichment (AncSZ)	phosphorylation enrichment (FGFR1)	phosphorylation enrichment (Fyn)	phosphorylation enrichment (Hck)	SH2 binding enrichment (c-Src SH2)	SH2 binding enrichment (SHP2-C SH2)	SH2 binding enrichment (Grb2 SH2)
KYRREYILSLE [GPC3_Y299_W296R]	0.628	0.613	0.576	0.364	0.698	0.465	0.511	0.534	0.491	0.754	0.427	0.468	0.49	0.374	0.606	0.774
SESSFYKSLNL [NGEF_Y289_A286S_YF]	1.06	0.508	0.468	0.598	1.25	0.516	0.853	0.562	0.816	1.06	0.477	0.479	0.521	0.48	0.495	0.775
TKDTFYKQPMV [GBA_Y451_F456V]	0.729	0.395	0.407	0.421	0.914	0.585	1.03	0.38	0.512	0.726	0.355	0.358	0.348	0.403	0.689	0.781
RFLRGYEQDAY [HLA-A_Y137_R138E]	0.807	0.407	0.304	0.358	0.969	0.448	0.478	0.289	0.57	0.71	0.6	0.525	0.42	0.981	0.87	1.03
IGSQRYKLGVR [RB1_Y446]	0.436	0.356	0.306	0.336	0.426	0.332	0.41	0.322	0.364	0.447	0.369	0.332	0.31	0.798	1.4	1.16
TLQTMYGCDVG [HLA-B_Y123_S121T]	0.979	0.68	0.647	0.909	1.15	0.589	0.849	0.838	0.772	1.13	0.556	0.554	0.579	0.545	0.729	0.854
KTTILHKLKLG [ARF1_Y35_Y35H]	0.548	0.326	0.35	0.4	0.739	0.509	0.591	0.435	0.518	0.584	0.439	0.333	0.39	1.46	1.24	1.5
RDSQIYAVDYE [MRPS34_Y34_L33I]	0.977	4.24	4.3	2.44	1.56	1.94	0.684	1.89	1.37	1.86	1.21	7.43	4.23	0.485	0.691	0.824
SRPTQYSSFSC [SPEM2_Y104]	0.816	0.7	0.619	0.584	0.986	0.511	0.752	0.486	0.578	0.764	0.557	0.627	0.598	0.857	2.11	2.26
QVMDGYPIPIG [MMP14_Y353_M355I]	0.554	0.3	0.482	0.596	0.715	0.755	0.46	0.56	0.572	0.686	0.406	0.592	0.566	0.5	0.587	0.826
GHPYAYDWISI [BEST1_Y227_L224P]	0.794	1.55	8.66	1.65	2.26	1.07	0.661	17.5	6.75	1.47	10.1	0.929	1.62	4.11	1.07	1.1
ETLLFYGFRRS [POR_Y564_C566Y_YF]	0.745	0.514	0.631	0.504	1.01	0.404	0.542	0.405	0.535	0.871	0.58	0.431	0.544	0.356	0.458	0.749
TDGNGYISFNE [LCP1_Y28]	0.824	0.603	0.412	0.476	1.13	0.485	0.624	0.489	0.752	0.923	0.546	0.454	0.458	36	1.98	0.922
FQLPFYNTVPS [BMPR1A_Y458_M460T_YF]	0.704	0.565	0.569	0.526	0.828	0.45	0.625	0.642	0.699	0.748	0.414	0.465	0.687	5.8	0.816	0.911
HPFHVYPQPGM [BAG3_Y114]	0.545	0.465	0.585	1.02	0.852	1.01	0.938	0.499	0.998	0.873	0.749	0.804	0.684	0.883	0.79	1.05
GIVEDYRPPVY [ACVRL1_Y421_F425V]	0.77	0.437	0.403	0.524	0.953	0.547	0.539	0.479	0.53	0.817	0.458	0.406	0.505	0.47	0.524	0.825
CDTKLYTSVPN [DNTTIP2_Y427_A430V]	0.842	0.849	1.5	1.11	1.12	0.77	0.755	1.27	0.797	0.96	0.62	0.655	1.01	1.22	0.48	0.728
